The target in assay [1] is full-length mouse GCGR (mouse) (UniProt Q61606). Description: cell-based or functional assay.
Assay [2] deals with full-length rat GCGR transiently expressed on HEK293 reporter cells (rat) (UniProt P30082). Description: cell-based or functional assay.
Chain of full-length rat GCGR transiently expressed on HEK293 reporter cells (rat) (P30082 27-485 limits assumed): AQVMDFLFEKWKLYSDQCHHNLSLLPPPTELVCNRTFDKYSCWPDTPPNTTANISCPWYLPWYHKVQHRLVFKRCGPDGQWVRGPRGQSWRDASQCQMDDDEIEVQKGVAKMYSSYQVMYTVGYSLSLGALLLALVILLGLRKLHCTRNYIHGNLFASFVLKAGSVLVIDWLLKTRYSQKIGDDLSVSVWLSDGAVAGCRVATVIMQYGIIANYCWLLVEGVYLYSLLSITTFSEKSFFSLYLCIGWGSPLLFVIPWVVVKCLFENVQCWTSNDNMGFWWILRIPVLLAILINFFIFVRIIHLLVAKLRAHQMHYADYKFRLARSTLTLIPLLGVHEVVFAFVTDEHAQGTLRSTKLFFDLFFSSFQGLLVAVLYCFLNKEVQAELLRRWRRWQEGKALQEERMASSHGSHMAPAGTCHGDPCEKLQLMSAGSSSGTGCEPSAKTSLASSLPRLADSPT

Chain of full-length mouse GCGR (mouse) (Q61606 27-485 limits assumed): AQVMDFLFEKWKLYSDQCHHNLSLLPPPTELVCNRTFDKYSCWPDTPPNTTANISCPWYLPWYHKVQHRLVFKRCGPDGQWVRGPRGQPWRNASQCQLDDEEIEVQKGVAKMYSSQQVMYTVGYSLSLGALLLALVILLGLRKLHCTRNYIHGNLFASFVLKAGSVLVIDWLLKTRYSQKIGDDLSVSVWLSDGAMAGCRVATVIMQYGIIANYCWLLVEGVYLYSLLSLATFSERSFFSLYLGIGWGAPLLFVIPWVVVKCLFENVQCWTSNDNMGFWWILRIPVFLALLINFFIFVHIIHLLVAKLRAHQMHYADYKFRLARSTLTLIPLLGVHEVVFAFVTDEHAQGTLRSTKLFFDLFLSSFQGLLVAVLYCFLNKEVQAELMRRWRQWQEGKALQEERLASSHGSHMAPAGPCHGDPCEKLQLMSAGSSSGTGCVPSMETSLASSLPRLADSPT

For the substance “glucagon (from UniProt P01275 53-81) (ligand)”, the EC50 of luciferase (cAMP/CRE reporter) stimulation in HEK293/GCGR cells in assay [1] was 0.083 nM; in assay [2], 0.252 nM.
